Results from the nanobody polyreactivity screen of Harvey et al. (2022).

assay: yeast display, Sf9 membrane polyspecificity reagent, FACS + sequencing; frameworks hold sequencing errors
Outline: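 Nanobodies from a synthetic yeast display library (Saccharomyces cerevisiae BJ5465), induced 36–48 hours with galactose, were stained 1 hour at 4 °C with 10% biotinylated, detergent-solubilized Sf9 membrane reagent, enriched on streptavidin microbeads, then FACS-sorted. Anti-HA (expression) and streptavidin (reagent binding) fluorescence set low and high (top ~1%) gates. Polyreactivity labels come from the gate of origin. Genes were colony-PCR amplified, MiSeq 2 × 250 sequenced and filtered by CDR length.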

Sequence	polyreactivity (PSR sort gate)
QVQLVESGGGLVQAGGSLRLICAASGSTFVPNAMGGYRQAPGKERELVAAITASTGRTYYADSVKGRFTISRDNAKNTVYLQMNSLKPEDTAVYYCAAYFVYWSDLEHYYPVEYGYWGQGTQVTVSS	high polyreactivity
QVQLVESGGGLVQAGGSLRLSCAASGSIFSSYAMGWYRQAPGKERELVAAITRRGGSTYYADSVKGRFTISRDNAKNTVYLQMNSLKPEDTAVYYCATGITARSRYGYWGQGTQVTVSS	high polyreactivity
QVQLVESGGGLVQAGGSLRLSCAASGSIFDVYAMGWYRQAPGKERELVARITWSGGSTYYADSVKGRFTISRDNAKNTVYLQMTSLKPEDTAVYYCNVDQVHPTRGLDYWGQGTQVTVSS	low polyreactivity
QVQLVESGGGLVQAGGSLRLSCAASGSTFADYAMGWYRQAPGKERELVAAITQSGGSTSYADSVKGRFTISRDNAKNTVYLQMNSLKPEDTAVYYCNVDDSTWIGAYRRYDYWGQGTQVTVSS	low polyreactivity
QVQLVESGGGLVQAGGSLRLSCAASGYIFKPNTMGWYRQAPGKERELVAAITRGGRTKYADSVKGRFTISRDNAKNTVYLQMNSLKPEDTAVYYCAAALPVQYRDMYSWGQGTQVTVSS	high polyreactivity
QVPLVESGGGLVQAGGSLRLSCAASGLTFDIYTMGWYRQAPGKERELVARISTSGSRTYYADSVKGRFTISRDYAKNTVYLQMNSLIPEDTAVYYCNKDGWIRRRRGSDYWGQGTQVTVSS	high polyreactivity
QVQLVESGGGLVQAGGSLRLSCAASGRTFATYAMGWYRPAPGKERELVAAISRSGSTTYYADSVKGRFTISRDNAKNTVYLQMNSLKPEDTAVYYCNAKFRKADYDYWGQGTQVTVSS	high polyreactivity
QVQLVDSGGGLVQAGGSLRLSCAASGLIFSDYAMGWYRPAPGKERELVAAIRSGGRTYYADSVKGRFTISRDNATNTVYLEMNSLKPEDTAVYFCNKLYRRYPVPREYDYWGQGTQVTVSS	high polyreactivity
QVQLVESGGGFVQAGGSVRLSCAASGRIFKYAMGWYIPAPGKERELVAAITHKGGSTYADSEKGRFTISRDNAKTTVYIQLNSRKPEDTAVYYCAAYYYYGKGYRRFDYWGQGTQVTVSS	low polyreactivity
QVQLVESGGGLVQAGGSLRLSCAASGLIFYRYAMGWYRQAPGKERELVAAISRRGGSTYYADSVKGRFTISRDNAKNTVYLQMNRLKAEETAVYYCAARLPGYYGIGDYWGQGTQVTVSS	high polyreactivity
QVQLVESGGRLVQAVGRLRLSCAASGFIFSRYAMRWYRPAPGKERELVAVISYSGGITYYADSVKGRFTISRDNAKNTVYLQMNSLKPEDTAVYYCAVGGTPRYSKYDYWGQGTQVTVSS	low polyreactivity
QVQLVESGGGLVQAGGSLRLSCAASGFTFDANAMGWYRQAPGKERELVAAITRVGSTFYADSVKGRFTISRDNAKNTVYLQMNSLKPEDTAVYYCNAARDHVSGYDYWGQGTQVTVSS	low polyreactivity
QVQLVESGGGLVQAGGSLRLSCAASGFTFDKNAMGWYRPAPGKERELVAAINIGSTYYADSVKGRFTISRDNAKNTVYLQMNRLKPEDTAVYYCAKEVPSGYWVNYYYWGQGTQVTVSS	low polyreactivity
QVQLVESGGGLVQAGGSLRLSCAASGRTLKKNAMGWYRQAPGKEMELVAAITSSTGITYYADSVKGRFTISRDNAKNTVYLQMNSLKPEDTAVYYCAADPPRTLSLIFYSREWSYDYWGQGTQVTVSS	low polyreactivity
QVQLVESGGGLVQAGGSLRLSCPTSGRNLRWYAMVWYIQAPGKERELVAAIKRSGDTTYYADSVKGRFTISRDNAKNTVYLQMNSLKPEHTAVYYCAARYTRKYDYWGQGTQVTVSS	high polyreactivity
QVQLVESGGGLFQAGGSLRLSCAASGSTFGFNAMGWYRQAPGKEREFVAAINTSGGNTYYADSVKGRFTISRDNAKNTVYLQMNSLKPEDTAVYYCNAREGHLYGYPYGYWGQGTQVTVSS	low polyreactivity
QVQLVESGGGLVQAGGSLGLSCAPSGYTFVPYVMGWYRQAPGKERELVAAISRGGSTYYADSVKGRFTISRDHAKNTVYLQMNSLKPEDTAVYYCNAGWFKYYPNLQAFKYWGQGTQVTVSS	high polyreactivity
QVQLVESGGGLVQAGGSLRLICAASGRTFWSYARGWSRQAPGKERQLVAAIRTSDGITYYADSVKGRFTISRDTAKNTVYLQMNSLKPEDTAVYYCAAENWYKYDYWGQGTQVTVSS	low polyreactivity
QVQLVESGGGLVQAVGSLRLSCDASGSTFYPYAIGWYRQAPAKESELVARITRGVGSTYYADSVKGRFTISRDNAKNTVYLQMNSLIPEDTAVYYCNRVEYFTVWGYDYWGQGTQVTVSS	low polyreactivity
QVQLVESGGGLVQAGGSLRLSCAASGRTLWYYTMGWYRQAPGKERELVADITRGTSTNYADSVKGRFTISRDNAKNTVYLQMNSLKPEDTAVYYCNRAHGRSRYSRDYDSWGQGTQVTVSS	low polyreactivity
QVQLVESGGGLVQAGGSLRLSCAASGSIFRSNAMGWYRQAPGKERELVAVIRSGGTTNYADSVKGRFTISRDNAKNTVYLQMNSLKPEDTAVYYCAAYGAHGGVIVVEGDYWGQGTQVTVSS	low polyreactivity
QVQLVESGGGLVQAGGSLRLSCAASGRTFNKNSMGWYRQAPGKERELVAAITTGGGTYYADSVKGRFTISRDNAKNTVYLQMNSLKPEDTAVYYCAARRRRWSGYWGQGTQVTVSS	high polyreactivity

Sequence	polyreactivity (PSR sort gate)
QVQLVESGGGLVQAGGSLRLSCAASGFTFPGYARGWYRQAPGKERELVAAISRGGAGTYYADSVKGRFTISRDNAKNTVYLQMNSLKPEDTAVYYCAAVYYVDYPDGNYEYWGQGTQVTVSS	high polyreactivity
QVQLVESGGGLVQAGGSLRLSCAASGSTFGLYAMGWYRQAPVKEREFVAAISWRTGSTYYADSVKGRFTISRDTAKNTVYLQMNSLKPEDTAVYYCNAPYFYSRYSPDDYWGQGTQVTVSS	high polyreactivity
QVQLVESGGGLVQAGGSLRLSCAASGRIFFTNAMGWYRQAPGKERELVAAISKYGARTYYADSVKGRFTISRDKAKNTVYLQMNSLKPEDTAVYYCAADVSVSGYYYWGQGTQVTVSS	high polyreactivity
QVQVVESGGGLVQAGGSLRLSCAASGRIFPLYAMGWSRQAPGTERELVAAISSGGTTYYADSVKGRFTFSRDNAKNTVYLQMNSLKPEDTAVYYCARRPAQRWGRFDYWGQGTQVTVSS	low polyreactivity
QVQLVESVGGLVQAGGSLRLSCAASGITFYSYDMGWYRQAPGKERELVAAITYRGGSTYYADSVKGRFTISRDNAKNTVYLQMNSLKPEDTAVYYCNADLLPADAPLWVTGGDYWGQGTQVTVSS	low polyreactivity
QVQRVESGGGLVQAGGSLRLSCAASRSIVNIYAMGWDRPAPGKERELVATITGIADSTYYADSVKGRFTISRDNAKNTVYLQMNSLKPEDTAVYYCAIYVSWPLYYYWGHGTQVTVSS	low polyreactivity
QVQLVESGGGLVQAGGSLRLSCAASGSIFPTNAMGWYRQAPGKERELVAAISRGDSTYYADSVKGRFTISRDNAKNTVYLQMNSLKPEDTAVYYCAARRSRTLWSPFYYWGQGTQVTVSS	low polyreactivity
QVQLVESGGGLVQAGGSLRLSCAASGYIFGYYVMGWYRQAPGKERELVAAITGRGGSTYYADSVKGRFTISRDNAKNTVYLQMISLKPEDTAVYDCAADATSYPYDPWHLYEIWEYYYWGQGTQVTVSS	low polyreactivity
QVQLVESGGGLVQAGGSLRLSCAASGFTFSWYAMGWYRQAPGKERELVAAISLSGDRTYYADSVKGRFTISRDNAKNSVYLQMNSLKPDDTAVYYCVFAFEYFYWGQGTQVTVSS	low polyreactivity
QVQLVESGGGLVQAGGSLRLSCAASGSNFRYNTMGSYRQAPGKERELVAAITQSGDNTYYADSVKGRFTISRDNAKNTVYLQMNSLKPEDTAVYYCAASGARSDGWTSYDYWGQGTQVTVSS	low polyreactivity
QVQLVESGGGLVQAGGNLRLSCAASGSIFAWYVMGWYRQPPGKERELVAGIDTSGGSTFYADSVKGRFTISRDNAKNTVYLQMNSLKPEDTAVYYCAADTWYRGPWEFDYWGQGTQVTVSS	low polyreactivity
QVQLVESGGGLVQAGGSLRLSCAASGRWLYAMGWYIQAPAKERELVAAISRSGGSTNYADSVKGRFTISRDNAKNTVYLQMNSLKPEDTAVYYCATKYNADTRYDYWGQGTQVTVSS	low polyreactivity
QVQLVESGGGLVQAGGSLRLSSAASGIIFRGYVMGWYRQAPGKERELVAASTWSGGSTYYADSVKGRFTISRDNAKNTVYLQMNSLKPEDTAVYYCNAVRVRVTSHRIRQLDYGYWGQGTQVTVSS	low polyreactivity
QVQLVESGGGLVQAGGSLRLSCAASGINFDDYAMGWYRQAPGTERELVAAITWNGGRTYYADSVKGRFTISRDNAKNTVYLKMNSLKPEDTEVYYCAARITNPAKYNYWGQGTQVTVSS	high polyreactivity
QVKLVESGGGLVQAGGSLRLSCAASGSTFVVNAMGCYRQAPGKERELVAAITQSGGSTFYADSVKGRFTISRDNAKNTVYLQMNSLKPEDTAVYYCAADTYYYYWFACYTEYDYWGQGTQVTVSS	low polyreactivity
QVQLVESGGGLVQAGGSLRLSCAASGRTLRYNVMGWYRHAPGKERELVAAISSGGSTYYADSVKGRFTISRDNAKNTVYLQMNSLKPEDTAVYYCAKRVSNWVTGGGYYYWGQGTQVTVSS	high polyreactivity
QVQLVESGGGLVQAGGSLRLSCAASGRTFRLYAMGWYRQAPGKERALVAAITGVGSTNYADSVKGRFTISRDNAKNTVYLQMNSLKPEDTAVYYCAAYYWSQVLIQGYYSWGQGTQVTVSS	high polyreactivity
QVQLVESGGGLVQAGGSLRLSCAASGRIFKRNAMGWYRQAPGKERELVAAISYSGGSTYYADSVKGRFTISRDNAKNTVYLQMNSLKPEDTAVYYCAAKYRPRGKSSWPYRRYDYWGQGTQVTVSS	high polyreactivity
QVQLVESGGGLVQAGGSLRLSCAASGSIFYRYAMGWYRQAPGKERELVAAISWGGGRTYYADSVKGRFTISRDNAKNTVYLLMKSLKPEDTAVYYCNAVQSYYTVHRLDYWGQGTQVTVSS	high polyreactivity
QVQLVESGGGLVQAGGSLRLSCAASGSIFRKYAMGWYRQAPGKEREFVAVITTDGSTNYADSVKRRFTISRDNAKNTVYLQMNSLKPEDTAVYYCNAFRSSIGTDNDFWGQGTQVTVSS	low polyreactivity
QVQLVESGGGLVQAGGSLRLSCAASGSTFRYNTMGWYRQAPGKERELVAAINISSSSTYYADSVKGRFTISRDNAKNTVYLQMNSLKPEDTAVYYCAKRDFVPIATDENDDYWGQGTQVTVSS	low polyreactivity
